Test results published in the Human Domainome abundance scans (Beltran et al. 2025).

B1: Ventral anterior homeobox 1, residues 102 to 157; numbered along this chain, Q5SQQ9 (parent)
chain: RTRTSFTAEQLYRLEMEFQRCQYVVGRERTELARQLNLSETQVKVWFQNRRTKQKK

Variants of: B1
Test: abundance fitness (aPCA) (normalised: wild type 0, dead -1); higher = more abundant; growth selection in yeast, the domain comes from the species named
Conditions: Homo sapiens

Abundance fitness of substitutions, site by site:
S5: H -0.224, L -0.179, G -0.002, D 0.262, Q 0.028, K -0.747, W -0.189, Y -0.013
Y12: P -0.967, T 0.018, M 0.102, S 0.069, L -0.086, I -0.188, W 0.001, C -0.176, A 0.044, V -0.085, F -0.13
R3: Y 0.071, M 0.279, L 0.156, I 0.251, D 0.326, S 0.266, W 0.054, H 0.229, G 0.223, P 0.164, Q 0.084, N 0.268, F 0.209, V 0.096, C 0.211, K 0.168, A 0.002
T2: G 0.013, F -0.3, E -0.012, R -0.166, S -0.074, L -0.406, W -0.566, H -0.38, N 0.271, C -1.01, P -0.098, Y -0.335, M -0.128, D -0.034, Q 0.135, K -0.202
T7: A -0.411, N -0.105, P -0.734, M -0.452, C -0.335, Y -0.652, S -0.158, L -0.704, R -0.499, K -0.589, V -0.466, W -0.925, H -0.407, E -0.279, I -0.56, D -0.043, F -0.77, G -0.311
L14: C -0.518, I -0.54, F -0.789, A -0.708
E9: I -0.456, R -0.455, P -0.669, V -0.157, C -0.299, K -0.453, F 0.005, A -0.244, N -0.733, T -0.464, D -0.135, M -0.235, Q -0.207, L -0.439, W -0.12, Y -0.398, H -0.509, S -0.408
A8: M -0.104, H -0.817, E 0, S -0.064, L -0.14, R -0.332, V -0.154, Q -0.301, N 0.059, I -0.363, C -0.212, G -0.205, Y -0.158, F -0.473, W -0.348, P -0.049
L11: Q 0.231, Y -0.335, F -0.159, G -0.254, D 0.022, A -0.075, N 0.18, M -0.172, I -0.059, T -0.149, R -0.61, W -0.494, P -0.893, H 0.005, K -0.274, E 0.308
R13: M -0.022, A 0.089, K -0.004, C -0.161, P -0.849, I 0.092, S -0.074, G -0.207, V -0.311, E -0.513, W -0.211, T -0.113, N -0.283, H -0.066, F -0.29, Y -0.316, Q 0.163, L -0.068
R1: S -0.042, T -0.465, I 0.024, C 0.058, E -0.025, M 0.083, G -0.002
T4: N 0.033, C -0.165, E 0.169, L 0.205, P -0.074, A -0.188, D -0.14, S -0.058, K -0.079, R -0.35, W -0.095, H -0.49, V -0.092, G -0.269, Q -0.11, I -0.193, M 0.107, F -0.347
